T1: FLAG-tagged β-catenin
T1 chain: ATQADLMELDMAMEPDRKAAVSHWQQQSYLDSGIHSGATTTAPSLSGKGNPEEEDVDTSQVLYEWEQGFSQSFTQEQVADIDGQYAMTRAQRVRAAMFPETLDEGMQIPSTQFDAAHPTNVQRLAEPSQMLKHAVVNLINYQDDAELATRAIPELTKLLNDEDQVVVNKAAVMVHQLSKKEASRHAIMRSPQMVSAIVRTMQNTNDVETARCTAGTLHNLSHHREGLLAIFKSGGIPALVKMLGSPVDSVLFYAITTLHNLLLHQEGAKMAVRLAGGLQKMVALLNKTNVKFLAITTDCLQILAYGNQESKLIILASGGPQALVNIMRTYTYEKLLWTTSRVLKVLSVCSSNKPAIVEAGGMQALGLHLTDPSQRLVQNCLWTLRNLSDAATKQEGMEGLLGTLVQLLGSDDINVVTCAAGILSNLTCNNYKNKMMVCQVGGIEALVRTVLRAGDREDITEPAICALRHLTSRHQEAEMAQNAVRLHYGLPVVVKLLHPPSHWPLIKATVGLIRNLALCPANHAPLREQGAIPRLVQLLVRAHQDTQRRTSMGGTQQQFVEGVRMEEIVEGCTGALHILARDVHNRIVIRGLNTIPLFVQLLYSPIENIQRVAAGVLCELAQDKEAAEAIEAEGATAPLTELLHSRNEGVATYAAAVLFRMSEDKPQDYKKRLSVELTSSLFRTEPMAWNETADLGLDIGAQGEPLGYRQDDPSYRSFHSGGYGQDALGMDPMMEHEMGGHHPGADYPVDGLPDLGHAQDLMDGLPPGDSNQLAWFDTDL

T2: Flag tagged-human Lmbr1l (limb region 1 like, LMBR1L) (human, UniProt Q6UX01 1-489)
T2 construct: It carries a Flag tag; also called h-LMBR1L; LIMR
T2 sequence: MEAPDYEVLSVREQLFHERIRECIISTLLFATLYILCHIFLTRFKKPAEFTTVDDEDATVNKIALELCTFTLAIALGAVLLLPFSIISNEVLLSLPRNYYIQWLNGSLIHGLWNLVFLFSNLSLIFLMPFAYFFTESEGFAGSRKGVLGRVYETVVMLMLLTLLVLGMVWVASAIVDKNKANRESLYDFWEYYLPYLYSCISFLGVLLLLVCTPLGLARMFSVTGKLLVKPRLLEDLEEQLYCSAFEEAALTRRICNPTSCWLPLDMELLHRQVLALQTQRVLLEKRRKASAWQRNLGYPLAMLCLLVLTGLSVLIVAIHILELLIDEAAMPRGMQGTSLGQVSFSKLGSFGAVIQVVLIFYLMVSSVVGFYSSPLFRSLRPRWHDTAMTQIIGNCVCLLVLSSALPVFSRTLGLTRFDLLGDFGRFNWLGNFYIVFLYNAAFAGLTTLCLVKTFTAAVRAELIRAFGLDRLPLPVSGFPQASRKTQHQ

B1: glycoprotein 78 (GP78; known as AMFR) (enzyme, UniProt Q9UKV5 1-643, looked up)
chain: MPLLFLERFPWPSLRTYTGLSGLALLGTIISAYRALSQPEAGPGEPDQLTASLQPEPPAPARPSAGGPRARDVAQYLLSDSLFVWVLVNTACCVLMLVAKLIQCIVFGPLRVSERQHLKDKFWNFIFYKFIFIFGVLNVQTVEEVVMWCLWFAGLVFLHLMVQLCKDRFEYLSFSPTTPMSSHGRVLSLLVAMLLSCCGLAAVCSITGYTHGMHTLAFMAAESLLVTVRTAHVILRYVIHLWDLNHEGTWEGKGTYVYYTDFVMELTLLSLDLMHHIHMLLFGNIWLSMASLVIFMQLRYLFHEVQRRIRRHKNYLRVVGNMEARFAVATPEELAVNNDDCAICWDSMQAARKLPCGHLFHNSCLRSWLEQDTSCPTCRMSLNIADNNRVREEHQGENLDENLVPVAAAEGRPRLNQHNHFFHFDGSRIASWLPSFSVEVMHTTNILGITQASNSQLNAMAHQIQEMFPQVPYHLVLQDLQLTRSVEITTDNILEGRIQVPFPTQRSDSIRPALNSPVERPSSDQEEGETSAQTERVPLDLSPRLEETLDFGEVEVEPSEVEDFEARGSRFSKSADERQRMLVQRKDELLQQARKRFLNKSSEDDAASESFLPSEGASSDPVTLRRRMLAAAAERRLQKQQTS
notes: Identified by LC-MS/MS in the LMBR1L co-IP; also called AMFR (GP78)
B2: UBX domain-containing protein 8 (UBXD8, known as FAF2) (other, UniProt Q96CS3 2-445, looked up)
chain: AAPEERDLTQEQTEKLLQFQDLTGIESMDQCRHTLEQHNWNIEAAVQDRLNEQEGVPSVFNPPPSRPLQVNTADHRIYSYVVSRPQPRGLLGWGYYLIMLPFRFTYYTILDIFRFALRFIRPDPRSRVTDPVGDIVSFMHSFEEKYGRAHPVFYQGTYSQALNDAKRELRFLLVYLHGDDHQDSDEFCRNTLCAPEVISLINTRMLFWACSTNKPEGYRVSQALRENTYPFLAMIMLKDRRMTVVGRLEGLIQPDDLINQLTFIMDANQTYLVSERLEREERNQTQVLRQQQDEAYLASLRADQEKERKKREERERKRRKEEEVQQQKLAEERRRQNLQEEKERKLECLPPEPSPDDPESVKIIFKLPNDSRVERRFHFSQSLTVIHDFLFSLKESPEKFQIEANFPRRVLPCIPSEEWPNPPTLQEAGLSHTEVLFVQDLTDE
notes: Identified by LC-MS/MS in the LMBR1L co-IP; also called FAF2 (UBXDB8)
B3: ubiquitin associated domain containing 2 (UBAC2) (other, UniProt Q8NBM4 36-344, looked up)
chain: HCQKLFVYDLHAVKNDFQIWRLICGRIICLDLKDTFCSSLLIYNFRIFERRYGSRKFASFLLGSWVLSALFDFLLIEAMQYFFGITAASNLPSGFLAPVFALFVPFYCSIPRVQVAQILGPLSITNKTLIYILGLQLFTSGSYIWIVAISGLMSGLCYDSKMFQVHQVLCIPSWMAKFFSWTLEPIFSSSEPTSEARIGMGATLDIQRQQRMELLDRQLMFSQFAQGRRQRQQQGGMINWNRLFPPLRQRQNVNYQGGRQSEPAAPPLEVSEEQVARLMEMGFSRGDALEALRASNNDLNVATNFLLQH
notes: Identified by LC-MS/MS in the LMBR1L co-IP

Data on 24 molecules can be found in patent US20210269519A1 (University of Texas, published 2021).

The target of one data set is T1, FLAG-tagged β-catenin.
Assay: not given
Regarding B1, the “ubiquitination of β-catenin (anti-FLAG IP, anti-ubiquitin immunoblot)” value was “Co-expression of FLAG-tagged β-catenin and HA-tagged GP78 strongly promoted the ubiquitination of β-catenin”.

The target of the next data set is T2, Flag tagged-human Lmbr1l (limb region 1 …). The data set can be described thus: anti-FLAG co-IP from HEK293T lysate + LC-MS/MS, vs empty vector. Here is the method:
We sought to understand the immune function of LMBRL1 by identifying LMBR1L-interacting proteins using co-immunoprecipitation (co-IP) combined with mass spectrometry (MS) analysis. Among the 1,623 candidate proteins identified as putative LMBR1L interactors (Dataset S1), 25 proteins were >50-fold more abundant in the LMBR1L co-IP product relative to empty vector control (Table 1).
Co-immunoprecipitation and mass spectrometry were performed to identify Lmbr1l-interacting proteins as described below. Transfection was performed in HEK293T cells (ATCC) using Lipofectamine 2000 reagent (Life technologies) with plasmid encoding Flag tagged-human Lmbr1l or empty vector control. Forty-eight hours after transfection, cells were harvested in NP-40 lysis buffer for 45 min at 4° C. […] The proteins were eluted with SDS sample buffer and heated at 95° C. for 10 min. Lysates were loaded onto 12% (wt/vol) SDS-PAGE gel and run 1 cm into the separation gel. The gel was stained with Coomassie blue (Thermo Fisher) and whole stained lanes were subjected to mass spectrometry analysis (LCMS/MS) as described previously (33).
B1: the “Ratio h-LMBR1L/h-vector” value was found to be 51.7 ratio.

For the molecule B2, the “Ratio h-LMBR1L/h-vector” value turned out to be 71.2 ratio.

Take B3: the “Ratio h-LMBR1L/h-vector” value came to 297 ratio.

Another data set addresses Flag tagged-human Lmbr1l (limb region 1 like, LMBR1L) (human) (UniProt Q6UX01). The data set is described as above.
In the case of NCAPD2 (from UniProt Q15021 1-1401), the Ratio h-LMBR1L/h-vector turned out to be 169.

NDUFA2 (from UniProt O43678 2-99): the Ratio h-LMBR1L/h-vector is 107.

With EIF4G1 (from UniProt E7EUU4 1-1560), the Ratio h-LMBR1L/h-vector is 58.1.

As to “USP9X (from UniProt Q93008 1-2554) (enzyme)”, the Ratio h-LMBR1L/h-vector amounted to 51.6.

As to TMEM209 (from UniProt Q96SK2 1-561), the Ratio h-LMBR1L/h-vector was determined as 97.8.

Turning to SRP68 (from UniProt Q9UHB9 1-627), the Ratio h-LMBR1L/h-vector amounted to 198.

With FKBP8 (from UniProt Q14318 1-413), the Ratio h-LMBR1L/h-vector came to 87.6.

With IMMT, the Ratio h-LMBR1L/h-vector was determined as 100.

Consider AAAS (from UniProt F8VZ44 1-422), for which the Ratio h-LMBR1L/h-vector is 81.9.

As for COPA (from UniProt P53621 1-1224), the Ratio h-LMBR1L/h-vector is 110.

Take MAGED1 (from UniProt Q9Y5V3 1-778): the Ratio h-LMBR1L/h-vector was 58.1.

On to CKAP4 (from UniProt Q07065 1-602), for which the Ratio h-LMBR1L/h-vector worked out at 79.5.

Regarding PTPLAD1, the Ratio h-LMBR1L/h-vector came to 87.6.

For the molecule “IARS (from UniProt J3KR24 1-1121) (enzyme)”, the Ratio h-LMBR1L/h-vector stood at 106.

Turning to SRPRB (from UniProt Q9Y5M8 1-271), the Ratio h-LMBR1L/h-vector amounted to 231.

As for GAPVD1 (from UniProt Q14C86 1-1478), the Ratio h-LMBR1L/h-vector was determined as 110.

Regarding “STT3A (from UniProt P46977 1-705) (enzyme)”, the Ratio h-LMBR1L/h-vector was 65.6.

PDCD6IP (from UniProt Q8WUM4 2-868): the Ratio h-LMBR1L/h-vector worked out at 67.3.

For the molecule “GANAB (from UniProt Q14697 29-944) (enzyme)”, the Ratio h-LMBR1L/h-vector was 198.

Regarding TMEM33 (from UniProt P57088 2-247), the Ratio h-LMBR1L/h-vector amounted to 87.

Regarding RPN1 (from UniProt P04843 24-607), the Ratio h-LMBR1L/h-vector worked out at 118.
